From article PMC11385924

How the values were obtained:
[1] = system: KmAgo (Km-WT) (Kurthia massiliensis); assay: fluorescence polarization; conditions: FP: 5 nM FAM-DNA, 0-1500 nM protein, 15 mM Tris-HCl pH 7.4, 200 mM NaCl, 5 mM MnCl2, 37 C, 1 h, EMSA: 1 uM FAM-guide, 2 uM protein
[2] = system: Km-AP23 (artificial (CPDiffusion design on KmAgo backbone)); assay: fluorescence polarization; conditions: FP: 5 nM FAM-DNA, 0-1500 nM protein, 15 mM Tris-HCl pH 7.4, 200 mM NaCl, 5 mM MnCl2, 37 C, 1 h, EMSA: 1 uM FAM-guide, 2 uM protein

| Substance | Kd [1] [nM] | Kd [2] [nM] |
| --- | --- | --- |
| gDNA (guide DNA) | 65.9 | 17 |
| tDNA (target DNA) | 70 | 29.5 |
